Experimental data as given in article PMC7939390 (The Journal of Biological Chemistry, 2020).

Key:
[1] = system: FtsBLQ; details: cited from earlier work
Description: In contrast, no significant change in the FA sig ...

[2] = system: TPase domain of PBP1b; details: 2.0 mM S2d, 1.2 μM PBP1b, FtsN 2 μM, 50 mM phosphate pH 7.0, 37 °C, 3.2 mM 4,4′-dithiodipyridine, absorbance 330 nm; representative of three independent experiments
Method: The activity of the TPase domain of PBP1b was measured in the presence of S2d (analog of the peptide moiety) as a mimic of donor substrates as previously described ([58], [59]). The assay was performed in a UV-Star 96-well microplate (Greiner Bio One) at 37 °C in the presence of 50 mM phosphate buffer, pH 7.0, 2.0 mM S2d, 3.2 mM 4,4′-dithiodipyridine, and 1.2 μM PBP1b. The absorbance at 330 nm was monitored with an Infinite M200 Pro microplate reader (Tecan, Männedorf, Switzerland). FtsN was used at 2 μM to test its effect on the PBP1b activity.

[3] = system: PBP3; details: cited from earlier work
Description: (§1) Bacteria generally have at least one bifunctional (GTase/TPase) PBP of class A and one monofunctional (TPase only) PBP of class B ([2], [13]). E. coli contains three aPBPs: PBP1a, 1b, and 1c, and two bPBPs: PBP2 and PBP3, the latter being involved in cell elongation and division, respectively ([14]). PBP1a and PBP1b are major PG synthases and at least one of them is required for cell viability ([15]).

[4] = target: T1, PBP1b (Escherichia coli, UniProt P02919); details: peptide versus full-length FtsN protein; 10 μM dansyl-lipid II, 30 nM PBP1bγ, pH 7.5, 30 °C
T1 sequence (P02919 1-799 isoform P02919-2): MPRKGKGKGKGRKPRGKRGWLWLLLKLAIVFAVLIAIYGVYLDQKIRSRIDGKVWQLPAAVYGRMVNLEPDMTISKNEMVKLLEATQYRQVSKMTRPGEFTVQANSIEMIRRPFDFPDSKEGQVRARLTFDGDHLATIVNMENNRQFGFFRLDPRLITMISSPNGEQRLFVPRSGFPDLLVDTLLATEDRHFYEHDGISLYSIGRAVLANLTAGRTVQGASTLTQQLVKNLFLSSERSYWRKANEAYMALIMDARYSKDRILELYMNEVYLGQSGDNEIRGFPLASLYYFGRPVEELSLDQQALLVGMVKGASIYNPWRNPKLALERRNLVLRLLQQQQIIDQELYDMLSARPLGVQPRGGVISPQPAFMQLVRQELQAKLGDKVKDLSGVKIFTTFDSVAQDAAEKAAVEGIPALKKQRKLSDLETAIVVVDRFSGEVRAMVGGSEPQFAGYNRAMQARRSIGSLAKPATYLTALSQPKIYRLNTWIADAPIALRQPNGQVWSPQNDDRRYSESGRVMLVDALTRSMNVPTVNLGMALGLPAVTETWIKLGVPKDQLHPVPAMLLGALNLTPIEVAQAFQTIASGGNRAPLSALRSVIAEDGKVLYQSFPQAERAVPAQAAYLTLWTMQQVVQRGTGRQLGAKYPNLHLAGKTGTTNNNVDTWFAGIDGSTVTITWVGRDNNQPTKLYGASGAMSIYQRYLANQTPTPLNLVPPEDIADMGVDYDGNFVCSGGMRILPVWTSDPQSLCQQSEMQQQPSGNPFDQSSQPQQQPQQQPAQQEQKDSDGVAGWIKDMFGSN
Method: (§3) The GTase activity assays with dansyl-lipid II as substrate were performed in a medium binding black 96-well microplate (Greiner Bio One) as described ([57]). The samples contained 10 μM dansyl-lipid II, 50 mM HEPES-NaOH, pH 7.5, 200 mM NaCl, 10 mM CaCl2, 0.085% of decyl-PEG, 20% of DMSO, and 1 unit of N-acetylmuramidase of Streptomyces globisporus (Sigma). […] The reactions were initiated by the addition of 30 nM PBP1bγ (100 nM for PBP1a) and monitored by following the fluorescence decrease over 20 min at 30 °C using an Infinite 200 PRO microplate reader (Tecan, Männedorf, Switzerland) with excitation wavelength at 340 nm and emission at 520 nm.

[5] = system: E. coli; details: residue change W83L; cited from earlier work
[6] = target: T1, PBP1b; details: compared with the WT protein; cited from earlier work
Description: The stimulation of PBP1b in vitro by FtsN is well-established ([5], [28]).

[7] = target: T1, PBP1b; details: cited from earlier work
Description: as §1

[8] = system: E. coli EJ801 (ΔponB-ponA^ts); assay: microscopy of EJ801 cells, cell morphology and length; format: cell-based, Escherichia coli; design: cell length L: unit not given here
Method: Samples were taken from the complementation cultures (42 °C) at different time (1-h intervals), and the cells were fixed as described ([63]). Photographs were taken with a cooled AxioCam MRm (Zeiss) mounted on a Zeiss Axio Imager. Z1 microscope, and the images were acquired in phase-contrast mode using the AxioVision Rel. 4.5 (Zeiss) software. The cell morphologies analysis were determined using ImageJ software (RRID:SCR_003070) running under plugin ObjectJ (RRID:SCR_019190).

[9] = system: E. coli EJ801 (ΔponB-ponA^ts); assay: complementation assay of E. coli EJ801 (ΔponB-ponA^ts); format: cell-based, Escherichia coli; details: 42 °C, 4 h, plasmids carrying ponB or mutants, LB 10 g/liter or low salt 0.5 g/liter comparable
Method: To test the activity of the PBP1b mutants in vivo, we tested their ability to complement E. coli strain EJ801, which lacks PBP1b and has a thermosensitive PBP1a ([33]). EJ801 cells were transformed with the corresponding plasmids and grown in LB at 30 °C with 50 µg/ml kanamycin. The preculture was then diluted in 30 ml of fresh LB ([…] NaCl) or LB with […] NaCl medium to an A600nm value of 0.04 and grown at 30 °C until A600nm = 0.1–0.3, and the absorbance of the culture was monitored for 4 h at 42 °C.

[10] = system: PBP1b^R141A/R397A; format: biochemical, Escherichia coli; details: dansyl-lipid II, continuous fluorescence assay; means ± S.D. of three experiments
Method: The error bars represent the values as means ± S.D. of three experiments.
as §3
activity of the PBP1bWT and PBP1bR141A-R397A was monitored in the presence or the absence of LpoB by
continuous fluorescence assay using dansyl-lipid II (LII) as substrate. The error bars represent the values

[11] = thermal stability of PBP1b^R141A-R397A at 42 °C: Bocillin binding; details: 1 h at 42 °C versus 30 °C, 7 µg protein, Bocillin FL 50 µM 30 min, SDS-PAGE (Fig. S1B)
Method: (§2) Figure S1. Stability of the double mutant PBP1bR141A-R397A at 42°C. (A) The purified protein was incubated at 30°C or 42°C for 1 h and its GTase activity was monitored at the same temperature by continuous fluorescence assay using dansyl -lipid II (LII) as substrate. The error bars represent the values as mean ± s.d. of three experiments. (B) after 1h at 30°C or 42°C the protein ( 7 µg) was labelled with Bocillin FL (50 µM) for 30 min at the same temperature and analyzed by SDS-PAGE followed by fluorescence imaging (right) and Coomassie blue staining (left). 1bWT and 1bRR depict PBP1b wild-type and PBP1b double mutant R141A-R397A, respectively. M, Molecular mass marker. […]

[12] = thermal stability of PBP1b^R141A-R397A at 42 °C: GTase activity; format: biochemical; details: 1 h at 42 °C versus 30 °C, dansyl-lipid II, mean ± s.d. of three experiments (Fig. S1A)
Method: as §2

B1: FtsN: full-length E. coli cell division protein FtsN (protein)
chain: MAQRDYVRRSQPAPSRRKKSTSRKKQRNLPAVSPAMVAIAAAVLVTFIGGLYFITHHKKEESETLQSQKVTGNGLPPKPEERWRYIKELESRQPGVRAPTEPSAGGEVKTPEQLTPEQRQLLEQMQADMRQQPTQLVEVPWNEQTPEQRQQTLQRQRQAQQLAEQQRLAQQSRTTEQSWQQQTRTSQAAPVQAQPRQSKPASSQQPYQDLLQTPAHTTAQSKPQQAAPVARAADAPKPTAEKKDERRWMVQCGSFRGAEQAETVRAQLAFEGFDSKITTNNGWNRVVIGPVKGKENADSTLNRLKMAGHTNCIRLAAGG
modifications: left off: His, end not stated, kept
interaction with FtsBLQ (literature) [1]: absence of strong interaction
effect on TPase activity of PBP1b (S2d hydrolysis) [2]: no effect
effect on the activity of PBP3 (literature) [3]: no effect on the activity of PBP3
concentration required for stimulation of the GTase activity of PBP1b [4]: ~1000 nM

B2: FtsN^W83L (protein, UniProt P29131 1-319, looked up, variant W83L)
Cell division protein FtsN: MAQRDYVRRSQPAPSRRKKSTSRKKQRNLPAVSPAMVAIAAAVLVTFIGGLYFITHHKKEESETLQSQKVTGNGLPPKPEERLRYIKELESRQPGVRAPTEPSAGGEVKTPEQLTPEQRQLLEQMQADMRQQPTQLVEVPWNEQTPEQRQQTLQRQRQAQQLAEQQRLAQQSRTTEQSWQQQTRTSQAAPVQAQPRQSKPASSQQPYQDLLQTPAHTTAQSKPQQAAPVARAADAPKPTAEKKDERRWMVQCGSFRGAEQAETVRAQLAFEGFDSKITTNNGWNRVVIGPVKGKENADSTLNRLKMAGHTNCIRLAAGG
FtsN activity in vivo (literature) [5]: impairs FtsN activity in vivo
interaction with PBP1b (literature) [6]: reduced compared with the WT protein
stimulation of PBP1b activity in vitro (literature) [7]: less able to stimulate PBP1b activity
suppression of FtsBLQ-mediated inhibition of PBP1b GTase activity (literature) [7]: less able to stimulate PBP1b activity and to suppress FtsBLQ-mediated inhibition of PBP1b GTase activity in vitro

B3: PBP1b^R141A/R397A (protein)
chain: MAGNDREPIGRKGKPTRPVKQKVSRRRYEDDDDYDDYDDYEDEEPMPRKGKGKGKGRKPRGKRGWLWLLLKLAIVFAVLIAIYGVYLDQKIRSRIDGKVWQLPAAVYGRMVNLEPDMTISKNEMVKLLEATQYRQVSKMTAPGEFTVQANSIEMIRRPFDFPDSKEGQVRARLTFDGDHLATIVNMENNRQFGFFRLDPRLITMISSPNGEQRLFVPRSGFPDLLVDTLLATEDRHFYEHDGISLYSIGRAVLANLTAGRTVQGASTLTQQLVKNLFLSSERSYWRKANEAYMALIMDARYSKDRILELYMNEVYLGQSGDNEIRGFPLASLYYFGRPVEELSLDQQALLVGMVKGASIYNPWRNPKLALERRNLVLRLLQQQQIIDQELYDMLSAAPLGVQPRGGVISPQPAFMQLVRQELQAKLGDKVKDLSGVKIFTTFDSVAQDAAEKAAVEGIPALKKQRKLSDLETAIVVVDRFSGEVRAMVGGSEPQFAGYNRAMQARRSIGSLAKPATYLTALSQPKIYRLNTWIADAPIALRQPNGQVWSPQNDDRRYSESGRVMLVDALTRSMNVPTVNLGMALGLPAVTETWIKLGVPKDQLHPVPAMLLGALNLTPIEVAQAFQTIASGGNRAPLSALRSVIAEDGKVLYQSFPQAERAVPAQAAYLTLWTMQQVVQRGTGRQLGAKYPNLHLAGKTGTTNNNVDTWFAGIDGSTVTITWVGRDNNQPTKLYGASGAMSIYQRYLANQTPTPLNLVPPEDIADMGVDYDGNFVCSGGMRILPVWTSDPQSLCQQSEMQQQPSGNPFDQSSQPQQQPQQQPAQQEQKDSDGVAGWIKDMFGSN
cell length L ([8]; EJ801 after 1 h at 42 °C, n = 250, phase contrast, ImageJ/ObjectJ): 6.14 ± 1.84
cell phenotype ([8]; EJ801 at 42 °C (double mutant: after 1 h)): mild elongated phenotype
restoration of growth of EJ801 at the nonpermissive temperature [9]: unable to rescue E. coli EJ801 at 42 °C
GTase activity of mutant compared with WT protein [10]: minor or no difference in the GTase activity compared with the WT protein
Bocillin-binding activity after incubation at 42 °C [11]: not affected
GTase activity after incubation at 42 °C [12]: not affected
